We go through one protein from publication PMC11372007, “Characterization of a GDS(L)-like hydrolase from Pleurotus sapidus with an unusual SGNH motif” (AMB Express, 2024).

Substrate in series [1]: CCCCCCCC(=O)Oc1ccc([N+](=O)[O-])cc1
Kind of series: purified protein. The format is biochemical, Pleurotus sapidus. The note with it: apparent constant, esterase assay: potassium phosphate pH 7.0, 0.5% v/v Triton X-100, 30 °C.

Substrate in series [2]: CCCC(=O)Oc1ccc([N+](=O)[O-])cc1
Kind of series: purified protein. The format is biochemical, Pleurotus sapidus. The note with it: apparent constant, esterase assay: potassium phosphate pH 7.0, 0.5% v/v Triton X-100, 30 °C.

B1: PSA_Lip (Pleurotus sapidus) (protein)
chain: AVLPRDAPNGVHLAVDPKCGVAGGRFGDVNIGLKPLTSYEHIVAFGDSWTDGGAHNGEPLPPPVLTPPNPRAGGRASNGPVWVEKLASAAGATLLDFAEIGAVTDKNIWPSSLLPTTASSANDFVGQAHNYINQRNGFDPETTLYTIFLGVGDFDLSQQTGTDNLYTVAGAIVYTILELTSYPTYAKNIIVVDNYGRGIYETPSGDAFKEGIYAGLNTLHTRYGTSVGFVDLKTLWDGVLGSSPGYEAFGYTSKAACLPSSTSTSGACANPESTFYWLPGIPSAATHGLIADYVEKVLTTC
notes: no tag told; semi-native gel band ~118 kDa
B1: in “purified protein [1]”, the Km (commonly the substrate concentration at which the rate is half of its maximum) is 330 µM; the Vmax (in general, the rate approached at saturating substrate) came out at 122 µM/min; the kcat (commonly the maximal rate divided by the concentration of active sites) is 2.19 s⁻¹; the kcat/Km (as a rule, the turnover number divided by the Michaelis constant) was determined as 6560 M⁻¹ s⁻¹. Moreover, in the series “purified protein [2]”, the Km amounted to 1220 µM, the Vmax was determined as 109 µM/min, the kcat worked out at 1.95 s⁻¹ and the kcat/Km was determined as 1610 M⁻¹ s⁻¹.
